From PMC9482650, “Quantitative fragmentomics allow affinity mapping of interactomes” (Nature Communications, 2022)

Tests used:
Assay in all cases: holdup assay
Parameters in all cases: key: below the threshold = too weak to quantify, mostly under pKd 3.1 to 4
GRID2IP_2, A4D2P6 = target: GRID2IP_2, A4D2P6
GORASP2, Q9H8Y8 = target: GORASP2, Q9H8Y8
SNTG2, Q9NY99 = target: T1, SNTG2, Q9NY99
T1 sequence (Q9NY99 68-166, limits assumed, looked up): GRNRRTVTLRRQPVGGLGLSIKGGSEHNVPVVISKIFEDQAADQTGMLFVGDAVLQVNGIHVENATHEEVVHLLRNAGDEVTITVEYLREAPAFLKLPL

NHERF2_2, Q15599 = target: NHERF2_2, Q15599
Inadl_1, Q8NI35 = target: Inadl_1, Q8NI35
ARHGEF11, O15085 = target: T2, ARHGEF11, O15085
T2 sequence (O15085 42-136, limits assumed, looked up): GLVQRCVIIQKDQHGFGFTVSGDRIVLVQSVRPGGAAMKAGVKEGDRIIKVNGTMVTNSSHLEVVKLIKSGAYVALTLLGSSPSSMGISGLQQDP

FRMPD3, Q5JV73 = target: FRMPD3, Q5JV73
APBA1_2, Q02410 = target: T3, APBA1_2, Q02410
T3 sequence (Q02410 742-832, limits assumed, looked up): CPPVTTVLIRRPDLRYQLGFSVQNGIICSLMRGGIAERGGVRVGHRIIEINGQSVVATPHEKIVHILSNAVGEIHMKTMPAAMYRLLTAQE

MAGI2_5, Q86UL8 = target: MAGI2_5, Q86UL8
DLG2_3, Q15700 = target: DLG2_3, Q15700
NHERF4_4, Q86UT5 = target: NHERF4_4, Q86UT5
DFNB31_3, Q9P202 = target: T4, DFNB31_3, Q9P202
T4 sequence (Q9P202 811-907, limits assumed, looked up): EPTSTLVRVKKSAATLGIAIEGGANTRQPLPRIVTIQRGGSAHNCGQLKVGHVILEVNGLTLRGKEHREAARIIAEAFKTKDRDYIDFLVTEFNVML

SCRIB_3, Q14160 = target: SCRIB_3, Q14160
MAGI3_2, Q5TCQ9 = target: MAGI3_2, Q5TCQ9
NOS1, P29475 = target: NOS1, P29475
GRIP2_3, Q9C0E4 = target: GRIP2_3, Q9C0E4
SNX27, Q96L92 = target: SNX27, Q96L92
LAP2, Q96RT1 = target: LAP2, Q96RT1
PDZD2_2, O15018 = target: T5, PDZD2_2, O15018
T5 sequence (O15018 329-429, limits assumed, looked up): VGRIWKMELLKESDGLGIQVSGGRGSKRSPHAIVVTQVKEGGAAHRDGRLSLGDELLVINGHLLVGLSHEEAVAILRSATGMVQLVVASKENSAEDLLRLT

TX1BP3, O14907 = target: T6, TX1BP3, O14907
T6 sequence (O14907 10-122, limits assumed, looked up): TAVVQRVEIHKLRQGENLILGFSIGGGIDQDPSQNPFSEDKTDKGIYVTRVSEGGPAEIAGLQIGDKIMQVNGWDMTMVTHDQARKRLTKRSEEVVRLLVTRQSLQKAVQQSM

FRMPD1, Q5SYB0 = target: T7, FRMPD1, Q5SYB0
T7 sequence (Q5SYB0 52-145, limits assumed, looked up): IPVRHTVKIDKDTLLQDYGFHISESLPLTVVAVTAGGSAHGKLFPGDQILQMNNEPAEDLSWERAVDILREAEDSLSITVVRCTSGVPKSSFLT

TJP3_3, O95049 = target: T8, TJP3_3, O95049
T8 sequence (O95049 375-456, limits assumed, looked up): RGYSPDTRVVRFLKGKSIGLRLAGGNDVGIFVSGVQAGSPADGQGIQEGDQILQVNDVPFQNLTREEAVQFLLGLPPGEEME

ARHGAP21, Q5T5U3 = target: T9, ARHGAP21, Q5T5U3
T9 sequence (Q5T5U3 45-169, limits assumed, looked up): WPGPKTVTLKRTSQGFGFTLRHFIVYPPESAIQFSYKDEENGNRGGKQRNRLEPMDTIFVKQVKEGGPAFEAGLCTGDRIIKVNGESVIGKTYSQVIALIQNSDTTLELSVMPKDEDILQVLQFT

APBA1_1, Q02410 = target: T10, APBA1_1, Q02410
T10 sequence (Q02410 651-752, limits assumed, looked up): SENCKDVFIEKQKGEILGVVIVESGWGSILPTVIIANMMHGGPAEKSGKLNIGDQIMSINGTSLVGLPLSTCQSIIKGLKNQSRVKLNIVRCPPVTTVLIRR

MAST1, Q9Y2H9 = target: MAST1, Q9Y2H9
LIN7C, Q9NUP9 = target: T11, LIN7C, Q9NUP9
T11 sequence (Q9NUP9 88-185, limits assumed, looked up): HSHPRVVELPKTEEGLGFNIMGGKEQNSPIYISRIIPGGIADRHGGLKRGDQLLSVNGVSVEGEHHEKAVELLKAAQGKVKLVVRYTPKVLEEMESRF

DLG4_3, P78352 = target: DLG4_3, P78352
[1] = plain residues with an end cap or a label only (N-terminal biotin on a linker: ahx)
[2] = plain residues with an end cap or a label only (N-terminal biotin on a linker: ttds)

Sequence of NOS1, P29475 (P29475 9-101): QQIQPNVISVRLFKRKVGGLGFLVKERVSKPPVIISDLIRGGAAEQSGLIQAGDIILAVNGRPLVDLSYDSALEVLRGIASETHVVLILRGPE
Sequence of GRID2IP_2, A4D2P6 (A4D2P6 272-370): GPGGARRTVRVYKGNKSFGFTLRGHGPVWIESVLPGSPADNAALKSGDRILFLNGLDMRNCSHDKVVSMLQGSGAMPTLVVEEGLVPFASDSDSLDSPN
Sequence of MAST1, Q9Y2H9 (Q9Y2H9 962-1065): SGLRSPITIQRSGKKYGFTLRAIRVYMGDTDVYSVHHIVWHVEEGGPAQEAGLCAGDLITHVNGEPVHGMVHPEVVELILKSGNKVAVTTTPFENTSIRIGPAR
Sequence of SCRIB_3, Q14160 (Q14160 999-1103): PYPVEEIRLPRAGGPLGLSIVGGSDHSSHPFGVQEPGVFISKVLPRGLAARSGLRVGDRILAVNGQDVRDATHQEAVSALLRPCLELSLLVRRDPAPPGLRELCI
Sequence of DLG4_3, P78352 (P78352 306-403): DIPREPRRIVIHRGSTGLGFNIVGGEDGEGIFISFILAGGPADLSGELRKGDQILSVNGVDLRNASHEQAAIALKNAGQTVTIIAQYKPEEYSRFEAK
Sequence of NHERF2_2, Q15599 (Q15599 142-238): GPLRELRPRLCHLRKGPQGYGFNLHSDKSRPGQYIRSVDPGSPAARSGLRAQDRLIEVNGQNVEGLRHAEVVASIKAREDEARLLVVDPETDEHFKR
Sequence of FRMPD3, Q5JV73 (Q5JV73 12-100): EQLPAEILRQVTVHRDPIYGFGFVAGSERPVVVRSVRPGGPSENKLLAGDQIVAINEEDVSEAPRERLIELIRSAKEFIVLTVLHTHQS
Sequence of MAGI2_5, Q86UL8 (Q86UL8 915-1017): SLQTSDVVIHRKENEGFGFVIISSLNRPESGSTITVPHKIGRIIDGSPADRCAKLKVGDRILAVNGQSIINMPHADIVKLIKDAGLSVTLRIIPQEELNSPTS
Sequence of GRIP2_3, Q9C0E4 (Q9C0E4 238-339): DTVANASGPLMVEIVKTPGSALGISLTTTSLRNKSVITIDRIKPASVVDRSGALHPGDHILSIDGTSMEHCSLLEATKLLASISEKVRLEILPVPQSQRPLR
Sequence of LAP2, Q96RT1 (Q96RT1 other isoform, or with tags, fused parts or gaps): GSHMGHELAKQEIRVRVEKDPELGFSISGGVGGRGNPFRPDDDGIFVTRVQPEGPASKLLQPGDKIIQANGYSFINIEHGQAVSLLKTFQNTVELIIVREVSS
Sequence of NHERF4_4, Q86UT5 (Q86UT5 464-550): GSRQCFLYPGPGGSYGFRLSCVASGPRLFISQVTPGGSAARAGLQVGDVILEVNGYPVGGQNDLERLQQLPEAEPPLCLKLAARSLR
Sequence of MAGI3_2, Q5TCQ9 (Q5TCQ9 398-503): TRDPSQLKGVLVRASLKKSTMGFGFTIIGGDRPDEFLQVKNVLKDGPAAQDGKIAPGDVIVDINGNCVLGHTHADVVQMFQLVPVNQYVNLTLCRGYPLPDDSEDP
Sequence of Inadl_1, Q8NI35 (Q8NI35 113-229): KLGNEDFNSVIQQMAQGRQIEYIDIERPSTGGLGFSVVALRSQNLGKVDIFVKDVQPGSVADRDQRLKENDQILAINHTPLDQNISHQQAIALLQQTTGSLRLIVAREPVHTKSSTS

B1: PDLIM2, Q96JY6 (peptide)
chain: SAPATLSSRA
GRID2IP_2, A4D2P6; [1]
  pKd: below the threshold
GORASP2, Q9H8Y8; [1]
  pKd: below the threshold
SNTG2, Q9NY99; [1]
  pKd: below the threshold
NHERF2_2, Q15599; [1]
  pKd: below the threshold
Inadl_1, Q8NI35; [1]
  pKd: below the threshold
ARHGEF11, O15085; [1]
  pKd: below the threshold
FRMPD3, Q5JV73; [1]
  pKd: below the threshold
APBA1_2, Q02410; [1]
  pKd: below the threshold
MAGI2_5, Q86UL8; [1]
  pKd: below the threshold
DLG2_3, Q15700; [1]
  pKd: below the threshold
NHERF4_4, Q86UT5; [1]
  pKd: below the threshold
DFNB31_3, Q9P202; [1]
  pKd: below the threshold
SCRIB_3, Q14160; [1]
  pKd: below the threshold
MAGI3_2, Q5TCQ9; [1]
  pKd: below the threshold
NOS1, P29475; [1]
  pKd: below the threshold
GRIP2_3, Q9C0E4; [1]
  pKd: below the threshold
SNX27, Q96L92; [1]
  pKd: below the threshold
LAP2, Q96RT1; [1]
  pKd: below the threshold
PDZD2_2, O15018; [1]
  pKd: below the threshold
TX1BP3, O14907; [1]
  pKd: below the threshold
FRMPD1, Q5SYB0; [1]
  pKd: below the threshold
TJP3_3, O95049; [1]
  pKd: below the threshold
ARHGAP21, Q5T5U3; [1]
  pKd: below the threshold
APBA1_1, Q02410; [1]
  pKd: below the threshold
MAST1, Q9Y2H9; [1]
  pKd: below the threshold
LIN7C, Q9NUP9; [1]
  pKd: below the threshold
DLG4_3, P78352; [1]
  pKd: below the threshold

B2: HPV33-E6, P06427 (peptide)
chain: SRSRRRETAL
GRID2IP_2, A4D2P6; [2]
  pKd: 4.18
GORASP2, Q9H8Y8; [2]
  pKd: 4.26
SNTG2, Q9NY99; [2]
  pKd: 4.48
NHERF2_2, Q15599; [2]
  pKd: 3.97
Inadl_1, Q8NI35; [2]
  pKd: below the threshold
ARHGEF11, O15085; [2]
  pKd: 4.25
FRMPD3, Q5JV73; [2]
  pKd: below the threshold
APBA1_2, Q02410; [2]
  pKd: below the threshold
MAGI2_5, Q86UL8; [2]
  pKd: below the threshold
DLG2_3, Q15700; [2]
  pKd: 5.23
NHERF4_4, Q86UT5; [2]
  pKd: below the threshold
DFNB31_3, Q9P202; [2]
  pKd: below the threshold
SCRIB_3, Q14160; [2]
  pKd: 5.3
MAGI3_2, Q5TCQ9; [2]
  pKd: 5.39
NOS1, P29475; [2]
  pKd: 4.03
GRIP2_3, Q9C0E4; [2]
  pKd: below the threshold
SNX27, Q96L92; [2]
  pKd: 4.91
LAP2, Q96RT1; [2]
  pKd: below the threshold
PDZD2_2, O15018; [2]
  pKd: below the threshold
TX1BP3, O14907; [2]
  pKd: 5.07
FRMPD1, Q5SYB0; [2]
  pKd: below the threshold
TJP3_3, O95049; [2]
  pKd: below the threshold
ARHGAP21, Q5T5U3; [2]
  pKd: 3.45
APBA1_1, Q02410; [2]
  pKd: below the threshold
MAST1, Q9Y2H9; [2]
  pKd: 4.78
LIN7C, Q9NUP9; [2]
  pKd: 4.14
DLG4_3, P78352; [2]
  pKd: 5.32

B3: RAPGEF6, Q8TEU7 (peptide)
chain: ADENEQVSAV
GRID2IP_2, A4D2P6; [1]
  pKd: 4.19
GORASP2, Q9H8Y8; [1]
  pKd: below the threshold
SNTG2, Q9NY99; [1]
  pKd: below the threshold
NHERF2_2, Q15599; [1]
  pKd: below the threshold
Inadl_1, Q8NI35; [1]
  pKd: below the threshold
ARHGEF11, O15085; [1]
  pKd: 4.06
FRMPD3, Q5JV73; [1]
  pKd: below the threshold
APBA1_2, Q02410; [1]
  pKd: 3.94
MAGI2_5, Q86UL8; [1]
  pKd: 4.38
DLG2_3, Q15700; [1]
  pKd: 3.63
NHERF4_4, Q86UT5; [1]
  pKd: below the threshold
DFNB31_3, Q9P202; [1]
  pKd: below the threshold
SCRIB_3, Q14160; [1]
  pKd: below the threshold
MAGI3_2, Q5TCQ9; [1]
  pKd: 3.61
NOS1, P29475; [1]
  pKd: 3.61
GRIP2_3, Q9C0E4; [1]
  pKd: below the threshold
SNX27, Q96L92; [1]
  pKd: 5.07
LAP2, Q96RT1; [1]
  pKd: below the threshold
PDZD2_2, O15018; [1]
  pKd: 5.5
TX1BP3, O14907; [1]
  pKd: below the threshold
FRMPD1, Q5SYB0; [1]
  pKd: below the threshold
TJP3_3, O95049; [1]
  pKd: below the threshold
ARHGAP21, Q5T5U3; [1]
  pKd: below the threshold
APBA1_1, Q02410; [1]
  pKd: below the threshold
MAST1, Q9Y2H9; [1]
  pKd: 4.05
LIN7C, Q9NUP9; [1]
  pKd: below the threshold
DLG4_3, P78352; [1]
  pKd: below the threshold

B4: NET1, Q7Z628 (peptide)
chain: SGGKRKETLV
GRID2IP_2, A4D2P6; [2]
  pKd: 3.56
GORASP2, Q9H8Y8; [2]
  pKd: 4.03
SNTG2, Q9NY99; [2]
  pKd: 4.17
NHERF2_2, Q15599; [2]
  pKd: below the threshold
Inadl_1, Q8NI35; [2]
  pKd: below the threshold
ARHGEF11, O15085; [2]
  pKd: 4.23
FRMPD3, Q5JV73; [2]
  pKd: below the threshold
APBA1_2, Q02410; [2]
  pKd: 3.53
MAGI2_5, Q86UL8; [2]
  pKd: 4.56
DLG2_3, Q15700; [2]
  pKd: 5.21
NHERF4_4, Q86UT5; [2]
  pKd: below the threshold
DFNB31_3, Q9P202; [2]
  pKd: below the threshold
SCRIB_3, Q14160; [2]
  pKd: 4.31
MAGI3_2, Q5TCQ9; [2]
  pKd: 5.92
NOS1, P29475; [2]
  pKd: 4.09
GRIP2_3, Q9C0E4; [2]
  pKd: below the threshold
SNX27, Q96L92; [2]
  pKd: 4.33
LAP2, Q96RT1; [2]
  pKd: below the threshold
PDZD2_2, O15018; [2]
  pKd: 4.25
TX1BP3, O14907; [2]
  pKd: 4.44
FRMPD1, Q5SYB0; [2]
  pKd: below the threshold
TJP3_3, O95049; [2]
  pKd: below the threshold
ARHGAP21, Q5T5U3; [2]
  pKd: below the threshold
APBA1_1, Q02410; [2]
  pKd: below the threshold
MAST1, Q9Y2H9; [2]
  pKd: 4.33
LIN7C, Q9NUP9; [2]
  pKd: 4.4
DLG4_3, P78352; [2]
  pKd: 4.92

B5: FAT3, Q8TDW7 (peptide)
chain: FVETQHQTQV
GRID2IP_2, A4D2P6; [2]
  pKd: 3.59
GORASP2, Q9H8Y8; [2]
  pKd: below the threshold
SNTG2, Q9NY99; [2]
  pKd: 3.82
NHERF2_2, Q15599; [2]
  pKd: below the threshold
Inadl_1, Q8NI35; [2]
  pKd: below the threshold
ARHGEF11, O15085; [2]
  pKd: 4.22
FRMPD3, Q5JV73; [2]
  pKd: below the threshold
APBA1_2, Q02410; [2]
  pKd: 3.9
MAGI2_5, Q86UL8; [2]
  pKd: 4.72
DLG2_3, Q15700; [2]
  pKd: 3.59
NHERF4_4, Q86UT5; [2]
  pKd: below the threshold
DFNB31_3, Q9P202; [2]
  pKd: below the threshold
SCRIB_3, Q14160; [2]
  pKd: 4.02
MAGI3_2, Q5TCQ9; [2]
  pKd: 4.57
NOS1, P29475; [2]
  pKd: 3.95
GRIP2_3, Q9C0E4; [2]
  pKd: below the threshold
SNX27, Q96L92; [2]
  pKd: 4.53
LAP2, Q96RT1; [2]
  pKd: 3.65
PDZD2_2, O15018; [2]
  pKd: 4.35
TX1BP3, O14907; [2]
  pKd: 4
FRMPD1, Q5SYB0; [2]
  pKd: below the threshold
TJP3_3, O95049; [2]
  pKd: below the threshold
ARHGAP21, Q5T5U3; [2]
  pKd: below the threshold
APBA1_1, Q02410; [2]
  pKd: below the threshold
MAST1, Q9Y2H9; [2]
  pKd: 4.8
LIN7C, Q9NUP9; [2]
  pKd: below the threshold
DLG4_3, P78352; [2]
  pKd: below the threshold
